PMC8766471, “Mutations affecting the N-terminal domains of SHANK3 point to different pathomechanisms in neurodevelopmental disorders” (Scientific Reports, 2022)

B1: Shank3 N-terminus (SPN + Ank domains, residues 1-339), WT, mRFP-tagged [rat] / δ-catenin, GFP-tagged [mouse] (parent complex)
chain 1: MDGPGASAVVVRVGIPDLQQTKCLRLDPTAPVWAAKQRVLCALNHSLQDALNYGLFQPPSRGRAGKFLDEERLLQDYPPNLDTPLPYLEFRYKRRVYAQNLIDDKQFAKLHTKANLKKFMDYVQLHSTDKVARLLDKGLDPNFHDPDSGECPLSLAAQLDNATDLLKVLRNGGAHLDFRTRDGLTAVHCATRQRNAGALTTLLDLGASPDYKDSRGLTPLYHSALGGGDALCCELLLHDHAQLGTTDENGWQEIHQACRFGHVQHLEHLLFYGANMGAQNASGNTALHICALYNQESCARVLLFRGANKDVRNYNSQTAFQVAIIAGNFELAEVIKTHK
chain 2: MFARKQSGAAPFGAMPVPDQPPSASEKNSSLSPGLNTSNGDGSETETTSAILASVKEQELQFERLTRELEAERQIVASQLERCKLGSETGSMSSISSAGEQFHWQTQDGQKDIEDELTTGLELVDSCIRSLQESGILDPQDYSTSERPSLLSQSALQLNSKPEGSFQYPASYHSNQTLALGDTAPSQLPARSTQARAAGQSFSQGTTGRAGHLAGSEPAPPPPPPREPFAPSLGSAFHLPDAPPAAAALYYSSSTLPAPPRGGSPLTTTQGGSPTKLQRGGSAPEGAAYAAPRGSSPKQSPSRLAKSYSTSSPINIVVSSAGLSPIRVTSPPTVQSTISSSPIHQLSSTIGTYATLSPTKRLVHASEQYSKHSQELYATATLQRPGSLAAGSRASYSSQHGHLAPELRALQSPEHHIDPIYEDRVYQKPPMRSLSQSQGDPLPPAHTGTFRTSTAPSSPGVDSVPLQRTGSQHGPQNAAAATFQRASYAAGPASNYADPYRQLQYCASVDSPYSKSGPALPPEGTLARSPSIDSIQKDPREFGWRDPELPEVIQMLQHQFPSVQSNAAAYLQHLCFGDNKIKAEIRRQGGIQLLVDLLDHRMTEVHRSACGALRNLVYGKANDDNKIALKNCGGIPALVRLLRKTTDLEIRELVTGVLWNLSSCDALKMPIIQDALAVLTNAVIIPHSGWENSPLQDDRKIQLHSSQVLRNATGCLRNVSSAGEEARRRMRECDGLTDALLYVIQSALGSSEIDSKTVENCVCILRNLSYRLAAETSQGQHMGTDELDGLLCGETNGKDTESSGCWGKKKKKKKSQDQWDGVGPLPDCAEPPKGIQMLWHPSIVKPYLTLLSECSNPDTLEGAAGALQNLAAGSWKGWAEDVAGMAYALRSLPEGAPCLPQWSVYIRAAVRKEKGLPILVELLRIDNDRVVCAVATALRNMALDVRNKELIGKYAMRDLVHRLPGGNNSNNSGSKAMSDDTVTAVCCTLHEVITKNMENAKALRDAGGIEKLVGISKSKGDKHSPKVVKAASQVLNSMWQYRDLRSLYKKDGWSQYHFVASSSTIERDRQRPYSSSRTPSISPVRVSPNNRSASAPASPREMISLKERKTDYESAGNNATYHGTKGEHTSRKDTMTAQNTGVSTLYRNSYGAPAEDIKQNQVSTQPVPQEPSRKDYETYQPFPNSTRNYDESFFEDQVHHRPPASEYTMHLGLKSTGNYVDFYSAARPYSELNYETSHYPASPDSWV

Variants of: B1
Test: co-immunoprecipitation (mRFP-trap) with Western blot quantification; coexpressed in 293 T cells; three independent experiments; read off a plot

Row | Variant | response
1 | chain 1 Y272C | ~0.068
2 | chain 1 Q256H | ~0.05
3 | chain 1 P141A | ~0.022
4 | chain 1 D69G | ~0.13
5 | chain 1 G250C | ~0.05
6 | chain 1 T337S | ~0.092
7 | chain 1 L270M | ~0.066
8 | chain 1 Q106P | ~0.07
9 | chain 1 Q317R | ~0.14
